We go through 1 substance from US20250042984A1.

Assay [1] concerns the target VEGF-B (extracellular domain) (UniProt P49765). Briefly: potency ELISA, VEGF-B coated plate; 160 mg/mL formulation in glass vials, 9 months at 25 C.
The target is the same in assay [2]. The assay is described as follows: potency ELISA, VEGF-B coated plate; 160 mg/mL formulation in glass vials, 9 months at 5 C.
Assay [3] has the same target. Briefly: potency ELISA, VEGF-B coated plate; 160 mg/mL formulation in glass vials, 1 month at 5 C.
Assay [4] has the same target. The assay is described as follows: potency ELISA, VEGF-B coated plate; 160 mg/mL formulation in glass vials, 9 months at 35 C.
Assay [5] has the same target. Briefly: potency ELISA, VEGF-B coated plate; 160 mg/mL formulation in glass vials, 6 months at 25 C.
Assay [6] has the same target. The assay is described as follows: potency ELISA, VEGF-B coated plate; 160 mg/mL formulation in glass vials, 3 months at 35 C.
For assay [7] the target is unchanged. The assay is described as follows: potency ELISA, VEGF-B coated plate; 160 mg/mL formulation in glass vials, 12 months at 25 C.
Assay [8] shares this target. Briefly: potency ELISA, VEGF-B coated plate; 160 mg/mL formulation in glass vials, 6 months at 35 C.
For assay [9] the target is unchanged. The assay is described as follows: potency ELISA, VEGF-B coated plate; 160 mg/mL formulation in glass vials, 12 months at 35 C.
For assay [10] the target is unchanged. The assay is described as follows: potency ELISA, VEGF-B coated plate; 160 mg/mL formulation in glass vials, 12 months at 5 C.
Assay [11] has the same target. Briefly: potency ELISA, VEGF-B coated plate; 160 mg/mL formulation in glass vials, 1 month at 25 C.
The target is the same in assay [12]. Briefly: potency ELISA, VEGF-B coated plate; 160 mg/mL formulation in glass vials, 6 months at 5 C.
Assay [13] shares this target. The assay is described as follows: potency ELISA, VEGF-B coated plate; 160 mg/mL formulation in glass vials, 0 months (25 C table).
The target is the same in assay [14]. The assay is described as follows: potency ELISA, VEGF-B coated plate, HRP detection, 4PL and parallel line analysis; 160 mg/mL formulation in glass vials, 0 months (5 C table).
Assay [15] shares this target. Briefly: potency ELISA, VEGF-B coated plate; 160 mg/mL formulation in glass vials, 1 month at 35 C.
The target is the same in assay [16]. Briefly: potency ELISA, VEGF-B coated plate; 160 mg/mL formulation in glass vials, 3 months at 25 C.
The target is the same in assay [17]. Briefly: potency ELISA, VEGF-B coated plate; 160 mg/mL formulation in glass vials, 3 months at 5 C.
Assay [18] shares this target. Briefly: potency ELISA, VEGF-B coated plate; 160 mg/mL formulation in glass vials, 0 months (35 C table).

Chain of UniProt P49765 (P49765 22-207): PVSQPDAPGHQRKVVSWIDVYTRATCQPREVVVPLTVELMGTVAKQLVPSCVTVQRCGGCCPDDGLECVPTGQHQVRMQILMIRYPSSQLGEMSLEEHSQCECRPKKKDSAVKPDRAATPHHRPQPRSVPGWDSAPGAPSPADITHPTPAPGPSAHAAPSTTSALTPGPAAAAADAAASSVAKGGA

Turning to anti-VEGFB antibody (CSL346), the Surrogate potency for VEGF-B binding by ELISA (relative to CSL346 reference standard) (% relative to reference standard) in assay [1] came to 101; in assay [2] it was 109; in [3], 109; in [4] it was 98; in assay [5] it was 95; in assay [6], 92. In addition, the Surrogate potency for VEGF-B binding by ELISA (relative to CSL346 reference standard) (% relative to reference standard) came out at 136 in [7]; 95 in assay [8]; 106 in assay [9]; 110 in [10]; 107 in assay [11]; 101 in assay [12]. The Surrogate potency for VEGF-B binding by ELISA (relative to CSL346 reference standard) (% relative to reference standard) was 105 in [13]; 105 in assay [14]; 115 in [15]; 113 in [16]; 96 in [17]; 105 in [18].
